Among the data in paper PMC2702692 are koff and kon values, retold here.

The assay has as its target BSA-glycopolymer conjugate 10 (glycoprotein mimic 10) (bovine) (UniProt P02769). Nature of the assay: SPR. (Surface plasmon resonance follows binding to a sensor surface in real time, without labels.)
Sequence of UniProt P02769 (P02769 25-607): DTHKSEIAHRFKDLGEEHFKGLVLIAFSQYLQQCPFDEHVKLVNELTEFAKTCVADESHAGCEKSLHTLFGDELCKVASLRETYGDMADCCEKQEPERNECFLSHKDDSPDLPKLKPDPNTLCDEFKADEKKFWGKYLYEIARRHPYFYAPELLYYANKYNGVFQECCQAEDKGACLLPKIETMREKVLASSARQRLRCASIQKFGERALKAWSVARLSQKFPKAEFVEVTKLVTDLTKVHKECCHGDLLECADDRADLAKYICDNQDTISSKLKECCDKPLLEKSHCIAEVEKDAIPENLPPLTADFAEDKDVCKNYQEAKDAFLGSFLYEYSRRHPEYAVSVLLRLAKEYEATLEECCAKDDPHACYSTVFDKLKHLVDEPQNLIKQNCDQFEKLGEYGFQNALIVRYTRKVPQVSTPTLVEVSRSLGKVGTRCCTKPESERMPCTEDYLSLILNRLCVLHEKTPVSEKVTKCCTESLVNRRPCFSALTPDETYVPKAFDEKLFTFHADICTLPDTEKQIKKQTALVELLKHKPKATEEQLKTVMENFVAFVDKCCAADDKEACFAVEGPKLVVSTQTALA

As usually defined, the koff is a measure of how fast the partners let go of each other. Low values mean slow dissociation, high ones fast dissociation. As a reminder, the kon is the second-order rate constant of association. Read a low kon as slow association. Consider “recombinant rat mannose-binding lectin (MBL) (from UniProt P19999 18-238) (natural protein)”, for which the koff is 0.00073 s⁻¹ and the kon turned out to be 120000 M⁻¹ s⁻¹.
